Source: patent US20130101549A1 (Biogen, published 2013)

Legend:
human LTβR-Ig [1] = molecular target: T1, human LTβR-Ig (human, UniProt P36941 31-227); assay: ELISA on LTbR-Ig, dilutions of medium of transfected CHO cells
T1 construct: Expressed and purified in house; also called hLTbR-Ig; human LTBR-Ig

human LTβR-Ig [2] = molecular target: T1, human LTβR-Ig; assay: ELISA, huLTBR-Ig coated at 0.2 ug/ml, HRP anti-Flag mAb; the number is C of the printed 4-P fit (A 0.164, B 0.898, D 1.528, R^2 0.999)
murine LTβR-Ig [3] = molecular target: T2, murine LTβR-Ig (mouse, UniProt P50284 31-223); assay: ELISA, muLTBR-Ig coated at 2 ug/ml, HRP anti-Flag mAb; the number is C of the printed 4-P fit y=(A-D)/(1+(x/C)^B)+D (A 0.125, B 0.915, D 1.615, R^2 0.999)
T2 construct: Expressed and purified in house; also called mLTbR; murine LTBR-Ig
T2 sequence (P50284 31-223): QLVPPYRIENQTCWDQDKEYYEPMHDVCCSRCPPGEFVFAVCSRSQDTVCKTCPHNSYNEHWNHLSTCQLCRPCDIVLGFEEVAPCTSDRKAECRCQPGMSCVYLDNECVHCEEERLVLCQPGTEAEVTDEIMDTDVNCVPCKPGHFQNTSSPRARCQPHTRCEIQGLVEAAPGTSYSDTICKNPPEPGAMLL
Procedure: (§1) Human and murine ErbB2-Fc were obtained from R&D Systems. Wells of 96-well plates were coated with 2 ug/ml or 0.2 ug/ml of human or murine HER2-Fc by incubation overnight at 4-8° C. with either of these six proteins (80 ul/well of a 0.2 or 2 ug/ml solution in PBS). Wells were emptied, filled completely with a solution of PBS with 1% BSA (blocking buffer) and incubated at room temperature for 1 hour. Wells were emptied, washed twice PBS containing 0.05% Tween 20 (PBST) and filled with the samples (80 ul/well of 3× dilution series of the standard and supernatants in blocking buffer) prepared in another 96-well plate. […] After 1-hour incubation, the wells were emptied and filled with a solution of HRP substrate prepared freshly. The color was left to develop for 3 minutes and was stopped by addition of an equal volume of 1N H₂SO₄. Absorbance was measured at 450 nm using a Plate Reader (SpectraMax, Molecular Devices). The data was processed and graphs were created using SoftMax Pro software.
(§2) Human and murine LTBR-Ig were expressed and purified in house.

human HVEM-Ig [4] = molecular target: T3, human HVEM-Ig (human, UniProt Q92956 39-202); assay: ELISA, huHVEM-Ig coated at 0.2 ug/ml, HRP anti-Flag mAb; the number is C of the printed 4-P fit (A 0.22, B 1.302, D 1.232, R^2 0.998)
T3 construct: Expressed and purified in house; also called HVEM-Fc; Herpes virus entry mediator-Ig
T3 sequence (looked up): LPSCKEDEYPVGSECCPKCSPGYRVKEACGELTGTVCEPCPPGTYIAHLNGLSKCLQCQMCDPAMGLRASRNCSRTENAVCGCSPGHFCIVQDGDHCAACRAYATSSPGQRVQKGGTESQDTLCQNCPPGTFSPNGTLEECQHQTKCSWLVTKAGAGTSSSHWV
Procedure: as §1
Human and murine HVEM-Ig were expressed and purified in house.

murine LTβR-Ig [5] = molecular target: T2, murine LTβR-Ig; assay: ELISA, muLTBR-Ig coated at 0.2 ug/ml, HRP anti-Flag mAb; the number is C of the printed 4-P fit (A 0.044, B 0.606, D 1.329, R^2 0.999); the points end at OD about 1.1 at 10000 ng/ml, upper plateau not reached
Procedure: as §1, §2

murine HVEM-Ig [6] = molecular target: T4, murine HVEM-Ig (mouse, UniProt Q80WM9 39-210); assay: ELISA, muHVEM-Ig coated at 2 ug/ml, HRP anti-Flag mAb; the number is C of the printed 4-P fit y=(A-D)/(1+(x/C)^B)+D (A 0.143, B 0.757, D 1.559, R^2 0.999)
T4 construct: Expressed and purified in house
T4 sequence (looked up): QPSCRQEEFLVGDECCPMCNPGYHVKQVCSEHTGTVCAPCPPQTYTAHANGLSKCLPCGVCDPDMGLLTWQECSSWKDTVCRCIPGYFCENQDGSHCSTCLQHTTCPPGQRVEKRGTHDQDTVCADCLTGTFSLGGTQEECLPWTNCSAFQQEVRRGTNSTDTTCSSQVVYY

human LTβR-Ig [7] = molecular target: T1, human LTβR-Ig; assay: ELISA, huLTBR-Ig coated at 2 ug/ml, HRP anti-Flag mAb; the number is C of the printed 4-P fit y=(A-D)/(1+(x/C)^B)+D (A 0.103, B 0.763, D 1.654, R^2 0.999)
murine HVEM-Ig [8] = molecular target: T4, murine HVEM-Ig; assay: ELISA, muHVEM-Ig coated at 0.2 ug/ml, HRP anti-Flag mAb; the number is C of the printed 4-P fit (A 0.027, B 0.575, D 1.071, R^2 0.994)
human HVEM-Ig [9] = molecular target: T3, human HVEM-Ig; assay: ELISA, huHVEM-Ig coated at 2 ug/ml, HRP anti-Flag mAb; the number is C of the printed 4-P fit y=(A-D)/(1+(x/C)^B)+D (A 0.117, B 0.801, D 1.551, R^2 0.998)

T1 sequence (P36941 31-227): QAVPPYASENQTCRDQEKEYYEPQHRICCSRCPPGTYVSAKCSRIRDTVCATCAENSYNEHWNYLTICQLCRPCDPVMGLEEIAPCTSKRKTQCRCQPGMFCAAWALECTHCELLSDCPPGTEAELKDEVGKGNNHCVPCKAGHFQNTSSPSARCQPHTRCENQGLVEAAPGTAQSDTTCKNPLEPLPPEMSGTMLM

| Binder | binding result (human LTβR-Ig [1]) | EC50 (human LTβR-Ig [2]) [ng/mL] | EC50 (murine LTβR-Ig [3]) [ng/mL] | EC50 (human HVEM-Ig [4]) [ng/mL] | EC50 (murine LTβR-Ig [5]) [µg/mL] | EC50 (murine HVEM-Ig [6]) [ng/mL] | EC50 (human LTβR-Ig [7]) [ng/mL] | EC50 (murine HVEM-Ig [8]) [µg/mL] | EC50 (human HVEM-Ig [9]) [ng/mL] |
| --- | --- | --- | --- | --- | --- | --- | --- | --- | --- |
| anti-IGFR C06 Fab-hLIGHT fusion protein (C06-hLIGHT) (other, Tested as culture medium of transiently transfected CHO cells; not measured for this fusion; also called pBIIBC06-256) heavy: EVQLLESGGGLVQPGGSLRLSCAASGFTFSIYRMQWVRQAPGKGLEWVSGISPSGGTTWYADSVKGRFTISRDNSKNTLYLQMNSLRAEDTAVYYCARWSGGSGYAFDIWGQGTMVTVSSASTKGPSVFPLAPSSKSTSGGTAALGCLVKDYFPEPVTVSWNSGALTSGVHTFPAVLQSSGLYSLSSVVTVPSSSLGTQTYICNVNHKPSNTKVDKKVEPKSCDKGGGGSGGGGSGGGGSGGGGSNPAAHLTGANSSLTGSGGPLLWETQLGLAFLRGLSYHDGALVVTKAGYYYIYSKVQLGGVGCPLGLASTITHGLYKRTPRYPEELELLVSQQSPCGRATSSSRVWWDSSFLGGVVHLEAGEEVVVRVLDERLVRLRDGTRSYFGAFMV light: not shown | binds | – | – | – | – | – | – | – | – |
| huLight (ligand, human, UniProt O43557 66-240, looked up, soluble, Flag-tagged; also called Flag-huLIGHT (control)) ligand chain: GEMVTRLPDGPAGSWEQLIQERRSHEVNPAAHLTGANSSLTGSGGPLLWETQLGLAFLRGLSYHDGALVVTKAGYYYIYSKVQLGGVGCPLGLASTITHGLYKRTPRYPEELELLVSQQSPCGRATSSSRVWWDSSFLGGVVHLEAGEKVVVRVLDERLVRLRDGTRSYFGAFMV | – | 1.33 | 2.39 | 1.27 | 0.81 | 1.34 | 2.1 | 0.0186 | 1.3 |
